Data set [1] addresses His-PRDM9^Cst ZnF2–6 (Mus musculus castaneus (CAST/EiJ strain)). The data set can be described thus: native gel or EMSA; multimer assay II: construct bound to a 75-bp DNA (Hlx1 for PRDM9^Cst, Pbx1 for PRDM9^Dom2), native gel; MW of the lower shift read against a ladder of free DNA (75-740 bp) and divided by the monomer's MW; four replicates; crude bacterial lysates or in vitro expressed protein. In general terms: Mobility shift assays separate free from complexed probe on a gel.

The target is the same in data set [2]. The data set can be described thus: native gel or EMSA; multimer assay I: construct bound to single-Hlx1 and tandem-Hlx1 DNA fragments of rising length, native 5% polyacrylamide gel; MW of the second complex (supershift) read from the regression of the lower shifts and divided by the monomer's MW; crude bacterial lysates or in vitro expressed protein.
The target of data set [3] is His-PRDM9^Cst ZnF1-11 (Mus musculus castaneus (CAST/EiJ strain)). Described as above.
The target of data set [4] is His-MBP-eYFP-PRDM9^Cst ZnF (Mus musculus castaneus (CAST/EiJ strain)). Nature of the data set: native gel or EMSA; multimer assay II: construct bound to a 75-bp DNA (Hlx1 for PRDM9^Cst, Pbx1 for PRDM9^Dom2), native gel; MW of the lower shift read against a ladder of free DNA (75-740 bp) and divided by the monomer's MW; four replicates; crude bacterial lysates or in vitro expressed protein.

Data set [5] has as its target His-MBP-eYFP-PRDM9^Dom2 ZnF (Mus musculus domesticus (C57BL/6J strain)). The data set is described as above.
Data set [6] has as its target His-Halo-PRDM9^Cst ZnF1-11 (Mus musculus castaneus (CAST/EiJ strain)). The data set can be described thus: native gel or EMSA; multimer assay II as a2, with the semipure (ion-exchange) Halo-tagged construct; the shifted band was shown by MALDI-TOF mass spectrometry to hold mainly PRDM9 peptides.
Data set [7] has as its target His-eYFP-PRDM9^Cst (full-length PRDM9^Cst with KRAB, SSXRD, PR/SET and ZnF domains) (Mus musculus castaneus (CAST/EiJ strain)). The data set can be described thus: native gel or EMSA; multimer assay II: construct bound to a 75-bp DNA (Hlx1 for PRDM9^Cst, Pbx1 for PRDM9^Dom2), native gel; MW of the lower shift read against a ladder of free DNA (75-740 bp) and divided by the monomer's MW; four replicates; crude bacterial lysates or in vitro expressed protein.

Data set [8] addresses His-PRDM9^Cst ZnF2-8 (Mus musculus castaneus (CAST/EiJ strain)). The description is as above.
Data set [9] has the same target. Nature of the data set: native gel or EMSA; multimer assay I: construct bound to single-Hlx1 and tandem-Hlx1 DNA fragments of rising length, native 5% polyacrylamide gel; MW of the second complex (supershift) read from the regression of the lower shifts and divided by the monomer's MW; crude bacterial lysates or in vitro expressed protein.
The target in data set [10] is His-eYFP-PRDM9^Cst ZnF1-11 (Mus musculus castaneus (CAST/EiJ strain)). Nature of the data set: native gel or EMSA; multimer assay II: construct bound to a 75-bp DNA (Hlx1 for PRDM9^Cst, Pbx1 for PRDM9^Dom2), native gel; MW of the lower shift read against a ladder of free DNA (75-740 bp) and divided by the monomer's MW; four replicates; crude bacterial lysates or in vitro expressed protein.

The target is the same in data set [11]. Nature of the data set: native gel or EMSA; multimer assay I: construct bound to single-Hlx1 and tandem-Hlx1 DNA fragments of rising length, native 5% polyacrylamide gel; MW of the second complex (supershift) read from the regression of the lower shifts and divided by the monomer's MW; crude bacterial lysates or in vitro expressed protein.
Data set [12] concerns the target His-eYFP-PRDM9^Cst ZnF2-11 (Mus musculus castaneus (CAST/EiJ strain)). Nature of the data set: native gel or EMSA; multimer assay II: construct bound to a 75-bp DNA (Hlx1 for PRDM9^Cst, Pbx1 for PRDM9^Dom2), native gel; MW of the lower shift read against a ladder of free DNA (75-740 bp) and divided by the monomer's MW; four replicates; crude bacterial lysates or in vitro expressed protein.

Data set [13] has the same target. Nature of the data set: native gel or EMSA; multimer assay I: construct bound to single-Hlx1 and tandem-Hlx1 DNA fragments of rising length, native 5% polyacrylamide gel; MW of the second complex (supershift) read from the regression of the lower shifts and divided by the monomer's MW; crude bacterial lysates or in vitro expressed protein.
Data set [14] has as its target His-PRDM9^Cst ZnF (Mus musculus castaneus (CAST/EiJ strain)). Described as above.
Data set [15] deals with MBP-ZnF-Cst (Mus musculus castaneus (CAST/EiJ)) (UniProt Q96EQ9). Nature of the data set: EMSA. As to conditions: 10 mM Tris pH 7.5, 50 mM KCl, 50 uM ZnCl2, 0.05% NP-40 (1x TKZN), usually 50 ng/ul polydIdC, 60 min at RT, 5% native PAGE in 0.5x TBE.
The target of data set [16] is His-eYFP-PRDM9^Cst ZnF (Mus musculus castaneus (CAST/EiJ strain)). Nature of the data set: native gel or EMSA; multimer assay I: construct bound to single-Hlx1 and tandem-Hlx1 DNA fragments of rising length, native 5% polyacrylamide gel; MW of the second complex (supershift) read from the regression of the lower shifts and divided by the monomer's MW; crude bacterial lysates or in vitro expressed protein.

For orientation: stoichiometry N means a count of units in the complex or per binding partner. Broadly, the Kd is the concentration at which binding is half-saturated.

Take “His-PRDM9^Cst ZnF2–6 (domain or fragment)”: the stoichiometry N in data set [1] and in [2] was 2.9 in each case.

Regarding “His-PRDM9^Cst ZnF1-11 (domain or fragment)”, in data set [3], the stoichiometry N amounted to 3.

With “His-MBP-eYFP-PRDM9^Cst ZnF (domain or fragment)”, the stoichiometry N in data set [4] was 3.

“His-MBP-eYFP-PRDM9^Dom2 ZnF (domain or fragment)”: in data set [5], the stoichiometry N is 3.

Consider “His-Halo-PRDM9^Cst ZnF1-11 (domain or fragment)”, for which, in [6], the stoichiometry N stood at 3.

Regarding “His-eYFP-PRDM9^Cst (full-length PRDM9^Cst with KRAB, SSXRD, PR/SET and ZnF domains) (natural protein)”, the stoichiometry N in data set [7] amounted to 3.

Consider “His-PRDM9^Cst ZnF2-8 (domain or fragment)”, for which the stoichiometry N in [8] is 2.5; in data set [9] it was 2.7.

Regarding “His-eYFP-PRDM9^Cst ZnF1-11 (domain or fragment)”, the stoichiometry N stood at 3.5 in data set [10] and 3.8 in data set [11].

For “His-eYFP-PRDM9^Cst ZnF2-11 (domain or fragment)”, the stoichiometry N worked out at 3 in data set [12] and 2.7 in [13].

Take His-PRDM9^Cst ZnF (domain or fragment): the stoichiometry N in data set [14] is 3.

As to “AACCCTGAGCTGCCTAAAGGTCAAATAGTGTGCAGACTTGGACCCTGCCCTTTCTTTAATAGTGTGCAGACTTGGACCCTGCCCTTTCTTTCTGCTGTGAATACCAGAGGCACA (double strand) [tandem-Hlx1 114 bp]”, in data set [15] (sum of lower shift and supershift, two complexes), the Kd is 35 nM.

“His-eYFP-PRDM9^Cst ZnF (domain or fragment)”: in [16], the stoichiometry N amounted to 3.

Consider “GTGGGAGGAGATGGTGGGTGAATAGTGTGCAGACTTGGACCCTGCCCTTTCTTTACGCATTCCACTAACCATGGG (double strand) [single-Hlx1 75 bp]”, for which the Kd in data set [15] (60 min incubation) worked out at 48 nM.

Source of the values: paper PMC6643046.
